This note sets out measurements from patent US20250304693A1 (HIFIBIO, published 2025).

Substitutions are numbered along the chain they refer to.

The chains are these.
B1: HFB6-3hz24-hG4P-C109A (antibody, V domains shown)
VH: QVQLQESGPGLVKPSGTLSLTCADSGFNIKDTYIHWVRQPPGKGLEWIGRIDPANGFTRYNPSLKSRVTISSDKSKNQASLKLSSVTAADTAVYYCAREDGYPYYTLDAWGQGTTVTVSS
VL: DIVMTQSPDSLALSLGERATINCKSSQSLLDVDGKTYLNWFQQKPGQPPKRLIYLVSKLDSGVPDRFSGSGSGTDFTLTISSVQAEDVAVYYCWQGTHFPRTFGQGTKLEIK
notes: Humanized variant of HFB6-3
B2: HFB6-3hz25-hG4P-C109A (antibody, V domains shown)
VH: B1 VH with N28S, K30S
VL: B1 VL
notes: Humanized variant of HFB6-3
B3: HFB6-3hz25-hG4P-C109S (antibody, V domains shown)
VH: B1 VH with N28S, K30S, A109S
VL: B1 VL
notes: Humanized variant of HFB6-3
B4: HFB6-3hz20-hG4P (antibody, V domains shown)
VH: B1 VH with L64F, V68A, A109C
VL: B1 VL
notes: Humanized variant of HFB6-3
B5: HFB6-3hz24-hG4P-C109S (antibody, V domains shown)
VH: B1 VH with A109S
VL: B1 VL
notes: Humanized variant of HFB6-3
B6: HFB6-2hz9-hG4P (antibody, V domains shown)
VH: QVQLVQSGAEVKKPGASVKVSCKASGVNIKDTYMYWVRQAPGQGLEWIGRIDPANGYTRYAQKFQGRATVTADTSTSTVYLELSSLRSEDTAVYYCAVNDGYFEYFDVWGQGTTVTVSS
VL: EIVLTQSPGTLSLSPGERATLSCRSSQSLLDSDGKPYLNWLQQKPGQAPRRLIYLVSKLDSGIPDRFSGSGSGTDFTLTISRLEPEDLAVYYCWQDTHFPRTFGQGTKLEIK
notes: Humanized variant of HFB6-2
B7: HFB6-2hz16-hG4P (antibody, V domains shown)
VH: B6 VH
VL: B1 VL with L13V, V32S, T36P, F41L, P48S, G96D
notes: Humanized variant of HFB6-2
B8: HFB6-2hz12-hG4P (antibody, V domains shown)
VH: EVQLLESGGGLVQPGGSLRLSCAASGVNIKDTYMYWVRQAPGKGLEWIGRIDPANGYTRYADSVKGRFTISADNSKNTLYLQMNSLRAEDTAVYYCAVNDGYFEYFDVWGQGTTVTVSS
VL: B6 VL
notes: Humanized variant of HFB6-2
B9: HFB6-2hz8-hG4P (antibody, V domains shown)
VH: B6 VH with A68V, V70M, L81M
VL: B6 VL
notes: Humanized variant of HFB6-2
B10: HFB6-2hz0-hG4P (antibody, V domains shown)
VH: B6 VH with A16S, T58A, V70I, T74E, V79A
VL: B6 VL
B11: HFB6-2hz18-hG4P (antibody, V domains shown)
VH: B6 VH with A16S, T58A, T74K, V79A
VL: B1 VL with L13V, V32S, T36P, F41L, P48S, G96D
notes: Humanized variant of HFB6-2
B12: HFB6-2hz17-hG4P (antibody, V domains shown)
VH: B6 VH with A16S, T58A, V70I, T74E, V79A
VL: B1 VL with L13V, V32S, T36P, F41L, P48S, G96D
notes: Humanized variant of HFB6-2
B13: HFB6-2hz15-hG4P (antibody, V domains shown)
VH: B6 VH with A68V, V70M, L81M
VL: B1 VL with L13V, V32S, T36P, F41L, P48S, G96D
notes: Humanized variant of HFB6-2
B14: HFB6-2hz11-hG4P (antibody, V domains shown)
VH: B6 VH with A16S, T58A, T74K, V79A
VL: B6 VL
notes: Humanized variant of HFB6-2
B15: HFB6-2hz19-hG4P (antibody, V domains shown)
VH: B8 VH
VL: B1 VL with L13V, V32S, T36P, F41L, P48S, G96D
notes: Humanized variant of HFB6-2
B16: HFB6-2hz20-hG4P (antibody, V domains shown)
VH: QVQLQESGPGLVKPSGTLSLTCAASGVNIKDTYMYWVRQPPGKGLEWIGRIDPANGYTRYNPSFKSRATVSADKSKNQASLKLSSLTAADTAVYYCAVNDGYFEYFDVWGQGTTVTVSS
VL: B1 VL with L13V, V32S, T36P, F41L, P48S, G96D
notes: Humanized variant of HFB6-2

In the first assay the target is T1, human BTLA (B- and T-lymphocyte attenuator) on cells (human, UniProt Q7Z6A9 31-289).
T1 construct: whole, on cells; also called hBTLA; HEK293.BTLA
As to the kind of experiment: FACS competition on HEK293T.hBTLA cells; competitor hrHVEM-His-DL650. As for the experimental part:
In FIG. 12A, recombinant HVEM soluble protein was conjugated with DyLight 650 (DL650) fluorophore. HEK293 cells overexpressing hBTLA (HEK293.BTLA) were preincubated with increasing concentrations of selected HFB6-3 humanized variants with cysteine mutants or parental HFB6-3 at 4° C. for 30 minutes and then with DL650-conjugated HVEM for additional 30 minutes. After washing, soluble HVEM remaining associated with BTLA on HEK293.BTLA cells was measured by FACS.
B1 came in with an IC50 of 2.64 nM.
The same measure, in the same setting: under B2 stands 2.61 nM; under B3, 3.2 nM; under B4, 2.91 nM.
Regarding B5, the concentration for half-maximal inhibition (IC50) was 3.22 nM.

For another assay, the target named is T1, human BTLA (B- and T-lymphocyte …). As to the kind of experiment: FACS on HEK293T.hBTLA cells, AF647 anti-human IgG Fc detection. On the procedure: (§1) In FIGS. 11A and 11B, HEK293 overexpressing human BTLA (FIG. 11A) and Expi293 cells overexpressing cynomolgus BTLA (FIG. 11B) were incubated with different concentrations of selected HFB6-3 humanized variants with cysteine mutations. Anti-BTLA antibodies binding to target cells were quantified with an AF647-conjugated anti-human IgG Fc 2nd antibody by FACS. HFB6-3hz24-hG4P-C109A, HFB6-3hz25-hG4P-C109A, HFB6-3hz24-hG4P-C109S and HFB6-3hz25-hG4P-C109S bound to human BTLA and cyno BTLA with single digit nM and sub-nM EC₅₀, similar as parental HFB6-3 (FIGS. 11A and 11B and Table 13).
For B1, the EC50 is 3.27 nM.
On the same count and under the same terms, the value for B2 was 3.2 nM; that for B3 was 4.04 nM; that for B4 was 3.84 nM.
Still for that read-out and setting: the value for B5 was 3.6 nM.

The target is the same in a further assay. Kind of assay: cell-based or functional assay.
Consider B6, for which the “Reporter EC50” value turned out to be 36.7 nM.
The same measure, in the same setting: under B7 stands 10.8 nM.
As to B8, the “Reporter EC50” value was found to be 43.2 nM.
For B9, the “Reporter EC50” value stood at 66.8 nM.
On to B10, for which the “Reporter EC50” value was 47 nM.
In the case of B11, the “Reporter EC50” value was 10.8 nM.
Regarding B12, the “Reporter EC50” value came out at 18.2 nM.
Still for that read-out and setting: under B13 stands 19.6 nM.
Still for that read-out and setting: the value for B14 was 19.4 nM.
On the same count and under the same terms, the value for B15 was 22.1 nM.
For the molecule B16, the “Reporter EC50” value was 9.77 nM.

Another assay shares this target. Kind of assay: cell-based or functional assay. The source holds these as a separate data set.
For B1, the “CHO.TCRa.hHVEM/Jurkat.hBTLA.NFAT-luc (EC50 (nM))” value stood at 13 nM.
The same measure, in the same setting: the value for B2 was 10.2 nM.
Regarding B3, the “CHO.TCRa.hHVEM/Jurkat.hBTLA.NFAT-luc (EC50 (nM))” value stood at 14.4 nM.
Still for that read-out and setting: under B5 stands 16.6 nM.

In the next assay the target is T2, recombinant human BTLA (human, UniProt Q7Z6A9 31-157, limits assumed).
T2 construct: ELISA antigen; construct not described
T2 sequence (looked up): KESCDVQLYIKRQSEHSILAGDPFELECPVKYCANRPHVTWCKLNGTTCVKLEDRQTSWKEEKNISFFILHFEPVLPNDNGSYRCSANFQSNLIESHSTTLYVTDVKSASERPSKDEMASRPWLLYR
As to the kind of experiment: ELISA on recombinant human BTLA.
Take B6: the EC50 stood at 3.29 nM.
On the same count and under the same terms, the value for B7 was 2.39 nM; that for B8 was 5.05 nM.
Still for that read-out and setting: the value for B9 was 3.96 nM; that for B10 was 3.21 nM; that for B11 was 2.24 nM.
On the same count and under the same terms, the value for B12 was 2.4 nM; that for B13 was 2.74 nM.
Take B14: the concentration for a half-maximal effect (EC50) is 3.66 nM.
Same read-out and setting: the value for B15 was 2.55 nM; that for B16 was 2.51 nM.

Another assay addresses T3, cynomolgus BTLA on cells (cynomolgus, UniProt A0A2K5W7M7 31-289).
T3 construct: whole, on cells; Overexpressed on Expi293 cells; also called cyno BTLA; CynoBTLA
T3 sequence: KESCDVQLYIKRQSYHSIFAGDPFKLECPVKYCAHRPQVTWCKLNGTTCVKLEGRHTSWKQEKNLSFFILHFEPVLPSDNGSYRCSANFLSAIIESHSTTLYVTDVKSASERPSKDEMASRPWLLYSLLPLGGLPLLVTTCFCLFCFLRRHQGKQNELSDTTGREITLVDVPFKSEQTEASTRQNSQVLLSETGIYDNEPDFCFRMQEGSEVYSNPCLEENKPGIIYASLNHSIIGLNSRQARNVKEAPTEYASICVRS
Kind of assay: FACS on Expi293.cynoBTLA cells, AF647 anti-human IgG Fc detection. On the procedure: as §1
For the molecule B1, the 50% effective concentration (EC50) stood at 6.89 nM.
On the same count and under the same terms, the value for B2 was 9.69 nM; that for B3 was 8.83 nM.
With B4, the EC50 amounted to 7.38 nM.
On to B5, for which the half-maximal effective concentration (EC50) was determined as 7.83 nM.
